Data on two molecules can be found in patent US20060275211A1 (AGENSYS, published 2006).

In experiment [1] the target is T1, mouse 161P2F10B expressed on 293T cells (mouse, UniProt Q6DYE8 1-874).
T1 construct: whole, on cells; also called murine 161P2F10B; mouse 161P2F10B ortholog
The experiment in a line: FACS: 293T-mouse 161P2F10B cells (open line) vs 293T-neo cells (filled), MAb 2 µg/mL, anti-hIgG-PE. (In flow cytometry, cells or beads pass a laser one at a time.)
Procedure: Cross reactivity of human MAbs on mouse 161P2F10B. […] Antibodies bound on the cells were detected using anti-hIgG-PE and analyzed on FACS. Data were analyzed using CellQuest Pro software. The solid purple line is data from negative control cells. The green line is from 161P2F10B-positive cells.

Experiment [2] has as its target T2, Tag5-161P2F10B, purified recombinant extracellular domain (ECD) of 161P2F10B (amino acids 46-875) (human, UniProt O14638 46-875).
T2 construct: also called recombinant 161P2F10B; Tag5-161P2F10B-ECD
Nature of the experiment: SPR, MAb captured on CM5 chip, recombinant 161P2F10B 1-100 nM injected.
Source text: Briefly, each purified human MAb is captured onto a CM5 sensor chip surface. On average approximately 150 RUs of each MAb is captured in every cycle.

T1 sequence (Q6DYE8 whole entry): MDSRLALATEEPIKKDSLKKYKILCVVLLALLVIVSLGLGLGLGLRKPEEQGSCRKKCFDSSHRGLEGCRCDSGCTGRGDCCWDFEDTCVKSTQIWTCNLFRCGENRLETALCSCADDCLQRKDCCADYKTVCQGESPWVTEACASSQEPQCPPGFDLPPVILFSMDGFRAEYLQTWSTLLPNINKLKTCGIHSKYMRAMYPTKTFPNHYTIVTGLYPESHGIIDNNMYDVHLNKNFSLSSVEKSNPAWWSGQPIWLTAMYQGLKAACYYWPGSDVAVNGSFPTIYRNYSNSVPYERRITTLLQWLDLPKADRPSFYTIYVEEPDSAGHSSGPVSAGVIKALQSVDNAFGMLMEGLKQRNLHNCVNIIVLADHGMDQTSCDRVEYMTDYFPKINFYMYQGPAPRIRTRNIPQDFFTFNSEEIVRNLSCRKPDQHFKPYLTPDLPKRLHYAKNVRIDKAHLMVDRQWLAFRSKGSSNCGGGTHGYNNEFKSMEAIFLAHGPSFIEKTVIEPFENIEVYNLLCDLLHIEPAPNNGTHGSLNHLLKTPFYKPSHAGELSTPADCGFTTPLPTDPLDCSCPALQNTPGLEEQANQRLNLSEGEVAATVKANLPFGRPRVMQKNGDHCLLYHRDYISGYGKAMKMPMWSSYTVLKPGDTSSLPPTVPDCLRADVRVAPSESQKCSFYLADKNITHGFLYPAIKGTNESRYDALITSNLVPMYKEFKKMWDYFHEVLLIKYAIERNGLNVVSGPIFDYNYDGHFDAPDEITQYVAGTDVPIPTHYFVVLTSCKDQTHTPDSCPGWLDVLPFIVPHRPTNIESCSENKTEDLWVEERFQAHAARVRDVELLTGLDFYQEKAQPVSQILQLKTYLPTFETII

B1: H16-7.8 (antibody, V domains shown)
VH: QVQLQESGPGLVKPSQTLSLTCTVSGGSISSGGYYWSWIRQHPGKGLEWIGIIYYSGSTYYNPSLKSRVTISVDTSKNQFSLKLNSVTAADTAVFYCARVAIVTTIPGGMDVWGQGTTVTVSS
VL: EIVLTQSPDFQSVTPKEKVTITCRASQSIGISLHWYQQKPDQSPKLLIKYASQSFSGVPSRFSGSGSGTDFTLTINSLEAEDAATYYCHQSRSFPWTFGQGTKVEIKR
notes: Entries include the leader and a portion of the constant region
As to B1, the binding result in experiment [1] was “binds”.

B2: H16-7.200 (antibody, V domains shown)
VH: QVQLQESGPGLVKPSQTLSLTCTVSGGSITSGDYYWSWIRQHPGKGLEWFGFIYYSGSAYYNPSLKSRITISVDTSKNQFSLKLSSVTAADTAVYYCARERNYGGNSFDYWGQGTLVTVSS
VL: not shown
notes: Entries include the leader (VL: part of it) and a portion of the constant region; also called HA16-7.200
For orientation: Kd means a measure of binding affinity in units of concentration. Regarding B2, the Kd in experiment [2] was found to be 9 nM.
